The values that follow are results of earlier work, collected in publication PMC5450005.

What is called Ki is the dissociation constant of the complex between target and ligand, obtained from inhibition or displacement.

Series [1] has as its target ApelinR (Rattus norvegicus) (UniProt Q9JHG3).
For series [2] the target is unchanged. This is another data set of the same source.

Like-named read-outs stand apart in the source and are kept apart here.

Chain of UniProt Q9JHG3 (Q9JHG3 whole entry): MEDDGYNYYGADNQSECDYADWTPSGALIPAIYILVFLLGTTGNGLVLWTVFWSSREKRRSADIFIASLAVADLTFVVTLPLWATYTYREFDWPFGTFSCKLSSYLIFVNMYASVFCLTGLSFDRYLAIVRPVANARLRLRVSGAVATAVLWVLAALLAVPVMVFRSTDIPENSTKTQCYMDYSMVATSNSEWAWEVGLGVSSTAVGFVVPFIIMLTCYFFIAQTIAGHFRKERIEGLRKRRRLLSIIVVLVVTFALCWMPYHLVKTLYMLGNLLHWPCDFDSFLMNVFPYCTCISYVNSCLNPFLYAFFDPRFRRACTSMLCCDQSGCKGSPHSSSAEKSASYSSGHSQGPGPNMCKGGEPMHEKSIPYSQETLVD

In the case of K17F (apelin-17) (from UniProt Q9ULZ1), the Ki in series [1] is 0.06 nM. Take pE13F (apelin-13) (from UniProt Q9ULZ1): the inhibitory constant (Ki) in series [2] was 0.56 nM.
